This experiment deals with T1, Recombinant P-selectin (R&D Systems) (human, UniProt P16109 42-771).
T1 construct: extracellular domain; also called recombinant human P-selectin; recombinant truncated form of P-selectin
T1 sequence (looked up): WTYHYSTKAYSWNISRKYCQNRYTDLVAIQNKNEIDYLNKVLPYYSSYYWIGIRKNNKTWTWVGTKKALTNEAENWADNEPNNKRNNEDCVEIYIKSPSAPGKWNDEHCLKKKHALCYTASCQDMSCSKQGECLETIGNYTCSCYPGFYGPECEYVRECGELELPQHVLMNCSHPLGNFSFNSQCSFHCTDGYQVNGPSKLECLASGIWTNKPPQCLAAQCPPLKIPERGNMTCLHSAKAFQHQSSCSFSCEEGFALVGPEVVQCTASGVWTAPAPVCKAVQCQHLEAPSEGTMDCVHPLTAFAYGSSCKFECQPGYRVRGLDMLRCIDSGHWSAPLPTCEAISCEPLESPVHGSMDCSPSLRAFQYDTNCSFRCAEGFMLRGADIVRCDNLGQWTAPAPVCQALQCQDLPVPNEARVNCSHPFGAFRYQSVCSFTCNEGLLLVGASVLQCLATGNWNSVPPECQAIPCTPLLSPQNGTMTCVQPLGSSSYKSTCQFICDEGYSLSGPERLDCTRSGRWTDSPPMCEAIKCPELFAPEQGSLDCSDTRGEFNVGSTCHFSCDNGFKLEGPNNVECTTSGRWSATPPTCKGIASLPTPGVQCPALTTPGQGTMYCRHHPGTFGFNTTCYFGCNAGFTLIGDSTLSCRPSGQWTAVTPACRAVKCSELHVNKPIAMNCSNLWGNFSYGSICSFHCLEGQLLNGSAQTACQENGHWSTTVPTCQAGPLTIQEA
Nature of the experiment: SPR, BIACORE 2000; antibody captured by anti-human Fcγ on CM5, recombinant P-selectin 0-50 nM as analyte; 1:1 Langmuir fit. (Surface plasmon resonance follows binding to a sensor surface in real time, without labels.)

1 molecule from patent USRE44359 (Hoffmann-La Roche Inc, dated 2013) can be followed below.

B1: HuMab 017 (antibody, V domains shown)
VH: QPQLVQSGAEVKKPGASVKVSCKVSGNTLTELSMHWVRQAPGKGLEWMGGFDPENGEAIYAQKFQGRVTMTADTSTDTAYMDLSSLRSEDTAVYYCATDLAGGSDFYYYGLDVWGQGTTVTVSS
VL: AIQLTQSPSSLSASVGDRVTITCRASQGISSALAWYQQKPGKAPKLLIYDASSLESGVPSRFSGSGSGTDFTLTISSLQPEDFATYYCQQFNSYPYTFGQGTKLEIK
notes: Human monoclonal antibody; kappa light and gamma1 heavy chains by the cloning section; also called antibody 017; LC 1004-017
Turning to B1, the Ka was 5.59e+09 M⁻¹.
